Data on one substance can be found in article PMC3136475.

Experiment [1] deals with S453P C-terminal peptide (CTP), His6-tagged, released from the chain by trypsin cleavage of S453P proaerolysin (Aeromonas hydrophila). Description: SPR; His-tagged proaerolysin bound to nickel charged NTA sensor chip via the His tag at the C-terminus of the CTP; trypsin added and release of the mature toxin followed; apparent Koff, by the authors only comparative.
Experiment [2] has the same target. Description: pull-down; proaerolysin processed with trypsin agarose beads at pH 8, incubated with His-bind resin preloaded with nickel (held by the His6 tag of the CTP), 4°C, 30 min, extensively washed; SDS-PAGE and Coomassie staining.

Turning to “aerolysin (mature toxin obtained by trypsin cleavage of proaerolysin) (from UniProt P09167 24-445) (natural protein)”, the dissociation rate constant (koff) in experiment [1] worked out at 0.026 s⁻¹. Also, in experiment [2], the percent of the total aerolysin in the unbound fraction (released from the bead-bound CTP) was determined as 40%.
